Results on nine molecules are retold here after paper PMC5941314, “Structural insights into the nanomolar affinity of RING E3 ligase ZNRF1 for Ube2N and its functional implications” (Biochemical Journal, 2018).

Where a chain is given by its changes, count along the chain named. Names and notes keep the numbering of the source.

T1: ZNRF1^CTD (C-terminal domain of ZNRF1, residues 139–227) (UniProt Q8ND25 139-227)
T1 construct: ZNRF1, RING E3 ubiquitin ligase, residues 139-227 of the full-length protein (ZnF and RING domains); also called ZNRF1 C-terminal domain; ZRNF1^CTD; source: E. coli Rossetta2 (DE3), purified (HisTrap, SEC)
T1 sequence (looked up): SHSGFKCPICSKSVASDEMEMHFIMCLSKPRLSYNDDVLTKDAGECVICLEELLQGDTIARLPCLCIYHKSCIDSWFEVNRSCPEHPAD

T2: ZNRF1 full-length (UniProt Q8ND25 1-227)
T2 construct: ZNRF1, RING E3 ubiquitin ligase, full-length (ends at residue 227); The C-terminal strep-tag II is called non-cleavable; also called ZNRF1^FL; source: E. coli Rossetta2 (DE3), purified (HisTrap, StrepTrap HP, desalted); not shown: strep-tag II, C-terminal, kept
T2 sequence (looked up): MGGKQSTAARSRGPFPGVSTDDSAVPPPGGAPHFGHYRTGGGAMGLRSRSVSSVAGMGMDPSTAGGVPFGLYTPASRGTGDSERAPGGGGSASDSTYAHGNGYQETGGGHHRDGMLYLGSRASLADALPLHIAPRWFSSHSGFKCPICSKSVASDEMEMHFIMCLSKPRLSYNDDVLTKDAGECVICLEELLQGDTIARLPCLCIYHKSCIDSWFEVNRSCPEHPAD

B1: Ube2N (enzyme, UniProt P61088 1-152, looked up)
chain: MAGLPRRIIKETQRLLAEPVPGIKAEPDESNARYFHVVIAGPQDSPFEGGTFKLELFLPEEYPMAAPKVRFMTKIYHPNVDKLGRICLDILKDKWSPALQIRTVLLSIQALLSAPNPDDPLANDVAEQWKTNEAQAIETARAWTRLYAMNNI
notes: Ube2N, ubiquitin-conjugating enzyme E2 N; also called wtUbe2N; source: E. coli Rossetta2 (DE3), purified (ion exchange, SEC)
B2: Ube2N/Ube2V1 complex (complex)
chain 1: B1 chain
chain 2: not shown
notes: Ube2N, ubiquitin-conjugating enzyme E2 N; Ube2V1, ubiquitin-conjugating enzyme E2 variant 1; also called Ube2N/V1; source: E. coli Rossetta2 (DE3), each purified, mixed in stoichiometric amounts, complex isolated by SEC
B3: Ube2N^A98T (enzyme, UniProt P61088 1-152, looked up)
chain: B1 chain with A98T
notes: Ube2N, ubiquitin-conjugating enzyme E2 N, with A98T; source: E. coli Rossetta2 (DE3), purified (ion exchange, SEC)
B4: Ube2N^R14A (enzyme, UniProt P61088 1-152, looked up)
chain: B1 chain with R14A
notes: Ube2N, ubiquitin-conjugating enzyme E2 N, with R14A; source: E. coli Rossetta2 (DE3), purified (ion exchange, SEC)
B5: Ube2N^R14E (enzyme, UniProt P61088 1-152, looked up)
chain: B1 chain with R14E
notes: Ube2N, ubiquitin-conjugating enzyme E2 N, with R14E; source: E. coli Rossetta2 (DE3), purified (ion exchange, SEC)
B6: Ube2N^R14D (enzyme, UniProt P61088 1-152, looked up)
chain: B1 chain with R14D
notes: Ube2N, ubiquitin-conjugating enzyme E2 N, with R14D; source: E. coli Rossetta2 (DE3), purified (ion exchange, SEC)
B7: ZNRF1^RING (residues 166–227) (domain or fragment, UniProt Q8ND25 166-227, looked up)
chain: SKPRLSYNDDVLTKDAGECVICLEELLQGDTIARLPCLCIYHKSCIDSWFEVNRSCPEHPAD
notes: ZNRF1, RING E3 ubiquitin ligase, residues 166-227 (RING domain); also called RING domain of ZNRF1; source: E. coli Rossetta2 (DE3), purified (HisTrap, SEC)
B8: ZNRF1^(CTD, E183A) (domain or fragment, UniProt Q8ND25 139-227, looked up)
chain: T1 sequence (looked up) with E45A
notes: ZNRF1, RING E3 ubiquitin ligase, residues 139-227 with E183A; also called ZRNF1^CTD,E183A; E183A mutant; source: E. coli Rossetta2 (DE3), purified
B9: Ube2N^S96R (enzyme, UniProt P61088 1-152, looked up)
chain: B1 chain with S96R
notes: Ube2N, ubiquitin-conjugating enzyme E2 N, with S96R; source: E. coli Rossetta2 (DE3), purified (ion exchange, SEC)

Common to all, as to settings: both partners purified
Assay [1] deals with T1, ZNRF1^CTD (C-terminal domain of ZNRF1, …). Nature of the assay: ITC; ZNRF1^CTD in the cell, Ube2N in the syringe; 25°C; Na-phosphate pH 8.0, 450 mM NaCl; single site model.
Assay [2] shares this target. Nature of the assay: ITC; ZNRF1^CTD in the cell, Ube2N in the syringe; 25°C; Na-phosphate pH 8.0, 300 mM NaCl; single site model.
For assay [3] the target is unchanged. Nature of the assay: ITC; ZNRF1 construct (10–30 µM) in the cell, E2 in the syringe; 25°C; 20 mM sodium phosphate pH 8.0, 150 mM NaCl; single site model. Background: ITC needs no label: the signal is the heat of the interaction.
Assay [4] concerns the target T2, ZNRF1 full-length. The description is as above.
Assay [5] has as its target B8. The description is as above.
In assay [6] the target is B7. The description is as above.
Assay [7] has as its target B1. The assay is described as above.

In the case of B1, the dH is -9.26 kcal/mol in assay [1]; -9.63 kcal/mol in assay [2]; -10.5 kcal/mol in assay [3]; -9.17 kcal/mol in assay [4]; -9.42 kcal/mol in assay [5]; -10.9 kcal/mol in assay [6]. For the same molecule, the stoichiometry N – broadly, the number of molecules, sites or subunits per partner or assembly – in assay [1] was determined as 0.96; in assay [2], 0.984; in assay [3] it was 0.915; in assay [4] it was 0.842; in assay [5], 0.848; in assay [6], 0.913. Besides, the dissociation constant Kd (in general, the equilibrium constant for the complex coming apart) in assay [4] stood at 49.5 nM.

B2: in assay [3], the dH was -10.2 kcal/mol and the “stoichiometry N” value came to 1.04.

On to B3, for which, in assay [3], the dH was -9.62 kcal/mol and the “stoichiometry N” value is 1.05.

On to B4, for which, in assay [3], the dH is -8.69 kcal/mol and the “stoichiometry N” value is 0.958.

As for B5, in assay [3], the dH is -8.54 kcal/mol and the “stoichiometry N” value was 0.854.

With B6, in assay [3], the dH was -8.38 kcal/mol and the “stoichiometry N” value stood at 0.966.

As to B7, in assay [7], the affinity, expressed as Kd, was 49.4 nM.

With B8, the Kd in assay [7] came out at 459 nM.

For B9, in assay [3], the dH was -5.64 kcal/mol and the “stoichiometry N” value was found to be 0.828.
